Data on 16 sequences can be found in the supplement of paper PMC10724198.

For data set [1], the system named is Saccharomyces cerevisiae. Put plainly: protein stability index of tFT-peptide fusion (C-terminal peptide) (PSI (0-1 scale)); higher = more stable (slower turnover). On the procedure:
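MPS profiling in S. cerevisiae of the tFT-X12 degron library: putative degron peptides plus stable controls, 12 aa, fused to the C-terminus of a sfGFP-mCherry timer. Cells are FACS-sorted into 8 mCherry/sfGFP bins and deep-sequenced. PSI runs from 0 (unstable) to 1 (stable). Backgrounds are wild type, das1Δ and doa10Δ at 30 °C, and wild type, das1Δ, cdc34-1 and cdc53-1 at 37 °C; 2-3 technical replicates each.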

Data set [2] concerns Saccharomyces cerevisiae. The description is as above. The conditions noted are these: genetic background: wild type; temperature: 30 C.
[3] abbreviates: genetic background: cdc34-1, temperature: 37 C.
Where [4] appears, read: genetic background: cdc53-1, temperature: 37 C.
Where [5] appears, read: genetic background: das1 deletion, temperature: 30 C.
Setting [6] is: genetic background: das1 deletion, temperature: 37 C.
Where [7] appears, read: genetic background: doa10 deletion, temperature: 30 C.
[8] abbreviates: genetic background: wild type, temperature: 30 C.
[9] abbreviates: genetic background: wild type, temperature: 37 C.

± gives the standard deviation of the averaged measurements.
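Note: PSI is a weighted mean of sequencing reads over stability bins, variants kept only with over 10 reads, mCherry proximal and sfGFP distal, peptide attached via GGGS linker.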

Take IFFSLFFFFLCN: the protein stability index in data set [1] (setting [3]) was 0.353 ± 0.06; in data set [1] (setting [4]), 0.413 ± 0.0066; in data set [1] (setting [5]) it was 0.356 ± 0.027; in data set [1] (setting [6]), 0.526 ± 0.068; in data set [1] (setting [7]), 0.35 ± 0.03; in data set [1] (setting [8]) it was 0.289 ± 0.011. Moreover, the protein stability index in data set [1] (setting [9]) was 0.4212 ± 0.0014; in data set [2], 0.35 ± 0.056.
For IGLSIWSVVSAL, the protein stability index in data set [1] (setting [3]) is 0.652 ± 0.042; in data set [1] (setting [4]) it was 0.689 ± 0.015; in data set [1] (setting [5]), 0.535 ± 0.016; in data set [1] (setting [6]), 0.6826 ± 0.0014; in data set [1] (setting [7]), 0.253 ± 0.0069; in data set [1] (setting [8]), 0.286 ± 0.033. Further, the protein stability index is 0.5056 ± 0.0043 in data set [1] (setting [9]) and 0.392 ± 0.024 in data set [2].
Turning to IILGVRQIEVNS, the protein stability index in data set [1] (setting [3]) turned out to be 0.488 ± 0.012; in data set [1] (setting [4]), 0.517 ± 0.031; in data set [1] (setting [5]) it was 0.358 ± 0.029; in data set [1] (setting [6]), 0.526 ± 0.021; in data set [1] (setting [7]) it was 0.323 ± 0.0071; in data set [1] (setting [8]), 0.373 ± 0.031. The figures for the protein stability index in data set [1] (setting [9]) and in data set [2] were 0.52 ± 0.0076 and 0.4447 ± 0.0033, respectively.
As for IKSIKQNKIKTI, the protein stability index in data set [1] (setting [3]) is 0.619 ± 0.051; in data set [1] (setting [4]), 0.648 ± 0.021; in data set [1] (setting [5]), 0.653 ± 0.029; in data set [1] (setting [6]) it was 0.699 ± 0.026; in data set [1] (setting [7]), 0.186 ± 0.013; in data set [1] (setting [8]), 0.171 ± 0.079. In addition, the protein stability index in data set [1] (setting [9]) is 0.246 ± 0.032; in data set [2] it was 0.292 ± 0.008.
For IKTKGRYKKQRT, the protein stability index worked out at 0.632 ± 0.051 in data set [1] (setting [3]); 0.709 ± 0.01 in data set [1] (setting [4]); 0.679 ± 0.049 in data set [1] (setting [5]); 0.743 ± 0.037 in data set [1] (setting [6]); 0.34 ± 0.018 in data set [1] (setting [7]); 0.376 ± 0.058 in data set [1] (setting [8]). Also, the protein stability index in data set [1] (setting [9]) stood at 0.572 ± 0.045; in data set [2] it was 0.408 ± 0.014.
Turning to ILFIVSSCGCVG, the protein stability index in data set [1] (setting [3]) was found to be 0.543 ± 0.031; in data set [1] (setting [4]), 0.557 ± 0.039; in data set [1] (setting [5]) it was 0.445 ± 0.037; in data set [1] (setting [6]), 0.5904 ± 0.0013; in data set [1] (setting [7]), 0.443 ± 0.024; in data set [1] (setting [8]), 0.446 ± 0.015. For the same sequence, the protein stability index in data set [1] (setting [9]) is 0.5724 ± 0.0043; in data set [2], 0.471 ± 0.0064.
For ILISVNRVVLYC, the protein stability index was 0.364 ± 0.016 in data set [1] (setting [3]); 0.4123 ± 0.0011 in data set [1] (setting [4]); 0.289 ± 0.027 in data set [1] (setting [5]); 0.461 ± 0.011 in data set [1] (setting [6]); 0.115 ± 0.014 in data set [1] (setting [7]); 0.14 ± 0.017 in data set [1] (setting [8]). Also, the protein stability index in data set [1] (setting [9]) was found to be 0.1901 ± 0.00075; in data set [2], 0.2171 ± 0.00013.
For the sequence ILRKTAFRLRVL, the protein stability index in data set [1] (setting [3]) stood at 0.623 ± 0.047; in data set [1] (setting [4]), 0.635 ± 0.0073; in data set [1] (setting [5]), 0.525 ± 0.011; in data set [1] (setting [6]) it was 0.658 ± 0.023; in data set [1] (setting [7]), 0.228 ± 0.016; in data set [1] (setting [8]), 0.264 ± 0.024. Moreover, the values for the protein stability index in data set [1] (setting [9]) and in data set [2] were 0.376 ± 0.01 and 0.397 ± 0.025, respectively.
On to IMWCSSVSEVQW, for which the protein stability index in data set [1] (setting [3]) worked out at 0.538 ± 0.075; in data set [1] (setting [4]) it was 0.582 ± 0.0064; in data set [1] (setting [5]) it was 0.472 ± 0.027; in data set [1] (setting [6]), 0.518 ± 0.0069; in data set [1] (setting [7]), 0.492 ± 0.03; in data set [1] (setting [8]), 0.494 ± 0.047. The protein stability index in data set [1] (setting [9]) stood at 0.5016 ± 0.0029; in data set [2], 0.4741 ± 0.0032.
With IPFRRCFWFFWV, the protein stability index in data set [1] (setting [3]) came out at 0.537 ± 0.029; in data set [1] (setting [4]), 0.7 ± 0.011; in data set [1] (setting [5]) it was 0.593 ± 0.035; in data set [1] (setting [6]), 0.6909 ± 0.0044; in data set [1] (setting [7]) it was 0.143 ± 0.014; in data set [1] (setting [8]), 0.167 ± 0.024. Moreover, the protein stability index in data set [1] (setting [9]) stood at 0.204 ± 0.027; in data set [2], 0.2345 ± 0.0012.
For ISSYKFLRIVLV, the protein stability index in data set [1] (setting [3]) was 0.384 ± 0.01; in data set [1] (setting [4]) it was 0.435 ± 0.0053; in data set [1] (setting [5]), 0.335 ± 0.026; in data set [1] (setting [6]) it was 0.509 ± 0.022; in data set [1] (setting [7]), 0.131 ± 0.031; in data set [1] (setting [8]), 0.149 ± 0.032. The protein stability index stood at 0.191 ± 0.0035 in data set [1] (setting [9]) and 0.189 ± 0.0046 in data set [2].
For the sequence ISVSFSVIFFLL, the protein stability index in data set [1] (setting [3]) came to 0.266 ± 0.0073; in data set [1] (setting [4]) it was 0.398 ± 0.019; in data set [1] (setting [5]) it was 0.372 ± 0.019; in data set [1] (setting [6]) it was 0.4778 ± 0.0024; in data set [1] (setting [7]) it was 0.0751 ± 0.0046; in data set [1] (setting [8]) it was 0.0951 ± 0.01. In addition, the protein stability index in data set [1] (setting [9]) stood at 0.137 ± 0.002; in data set [2], 0.154 ± 0.044.
As to IWIRLGSENTVI, the protein stability index in data set [1] (setting [3]) worked out at 0.7085 ± 0.0014; in data set [1] (setting [4]) it was 0.7221 ± 0.007; in data set [1] (setting [5]), 0.646 ± 0.036; in data set [1] (setting [6]) it was 0.7489 ± 0.00087; in data set [1] (setting [7]), 0.672 ± 0.026; in data set [1] (setting [8]), 0.653 ± 0.032. Further, the protein stability index in data set [1] (setting [9]) amounted to 0.78 ± 0.015; in data set [2] it was 0.443 ± 0.22.
As to IWWFKELRVCRV, the protein stability index in data set [1] (setting [3]) was 0.506 ± 0.014; in data set [1] (setting [4]) it was 0.559 ± 0.013; in data set [1] (setting [5]) it was 0.435 ± 0.022; in data set [1] (setting [6]), 0.5589 ± 0.0019; in data set [1] (setting [7]), 0.4128 ± 0.0013; in data set [1] (setting [8]) it was 0.424 ± 0.024. In addition, the protein stability index is 0.539 ± 0.017 in data set [1] (setting [9]) and 0.49 ± 0.013 in data set [2].
Take IYFFFFALHFPN: the protein stability index in data set [1] (setting [3]) came to 0.498 ± 0.083; in data set [1] (setting [4]), 0.521 ± 0.013; in data set [1] (setting [5]), 0.366 ± 0.054; in data set [1] (setting [6]), 0.535 ± 0.029; in data set [1] (setting [7]), 0.388 ± 0.019; in data set [1] (setting [8]), 0.407 ± 0.025. Moreover, the figures for the protein stability index in data set [1] (setting [9]) and in data set [2] were 0.544 ± 0.047 and 0.524 ± 0.067, respectively.
On to KAIILGNIKINF, for which the protein stability index in data set [1] (setting [3]) was 0.729 ± 0.018; in data set [1] (setting [4]) it was 0.744 ± 0.016; in data set [1] (setting [5]), 0.6368 ± 0.0023; in data set [1] (setting [6]), 0.714 ± 0.011; in data set [1] (setting [7]) it was 0.638 ± 0.026; in data set [1] (setting [8]) it was 0.624 ± 0.018. The protein stability index turned out to be 0.741 ± 0.045 in data set [1] (setting [9]) and 0.539 ± 0.16 in data set [2].
